According to paper PMC4271523, “Differential Effects of a Mutation on the Normal and Promiscuous Activities of Orthologs: Implications for Natural and Directed Evolution” (Molecular Biology and Evolution, 2014):

How the values were obtained:
Assay in all cases: purified protein
purified protein [1] = substrate: N[C@@H](CCC=O)C(=O)O; assay type: biochemical, Aliivibrio fischeri; conditions: 1 mM NADP+, 100 mM potassium phosphate pH 7.6, room temperature, reverse (dehydrogenase) direction, apparent KM corrected to free GSA aldehyde/hydrate
purified protein [2] = substrate: N[C@@H](CCC=O)C(=O)O; assay type: biochemical, Pseudomonas putida; conditions: 1 mM NADP+, 100 mM potassium phosphate pH 7.6, room temperature, reverse (dehydrogenase) direction, apparent KM corrected to free GSA aldehyde/hydrate
purified protein [3] = substrate: CC(=O)N[C@@H](CCC=O)C(=O)O; assay type: biochemical, Pseudomonas putida; conditions: 1 mM NADP+, 100 mM potassium phosphate pH 7.6, room temperature, reverse (dehydrogenase) direction, promiscuous substrate, apparent KM, NAGSA in equilibrium with its hydrate
purified protein [4] = substrate: CC(=O)N[C@@H](CCC=O)C(=O)O; assay type: biochemical, Bacillus subtilis; conditions: 1 mM NADP+, 100 mM potassium phosphate pH 7.6, room temperature, reverse (dehydrogenase) direction, promiscuous substrate, apparent KM, NAGSA in equilibrium with its hydrate
purified protein [5] = substrate: N[C@@H](CCC=O)C(=O)O; assay type: biochemical, Methanosarcina acetivorans; conditions: 1 mM NADP+, 100 mM potassium phosphate pH 7.6, room temperature, reverse (dehydrogenase) direction, apparent KM corrected to free GSA aldehyde/hydrate
purified protein [6] = substrate: CC(=O)N[C@@H](CCC=O)C(=O)O; assay type: biochemical, Aliivibrio fischeri; conditions: 1 mM NADP+, 100 mM potassium phosphate pH 7.6, room temperature, reverse (dehydrogenase) direction, promiscuous substrate, apparent KM, NAGSA in equilibrium with its hydrate

B1: Allivibrio fischeri ProA (Aliivibrio fischeri ES114) (protein)
chain: MNLTTMGQAAKAAAFDLAVAPTAQKNKALAIIADELEANKDAILAANEKDIKAAVEAGISEAMQDRLLLTEERLVGIANDVRNVINLNDPVGSEIDSKVLENGMSLSRRRVPIGVIGVIYEARPNVTIDIASLCLKTGNASILRGGKETFFSNMELVKVIQVALEKAGLPAASVQYIEKPDRELVSQLLTMDDYVDMIIPRGGAGLHKMCKENSSIPVIIGGFGISHAFVDESADLERALVVVDNSKAQRPSACNALDTLLVHEAVAPQFLALLANNMAGRVELVAEPKAYGLLKEFEGVSLREAQEGDFDTEWLSYTLGVKVVADVNEAAAHMQKHNASHSDTILTNNIESAEKFINTAGSAAVYVNASTRFTDGAQFGLGAEVAVSTQKLHARGPMGLEELTSYKWVGKADYLIRS
notes: His-tagged, pTrcHisB, expressed in delta-argC delta-proA E. coli BW25113 (DE3)
Question: With B1 as the protein, how does the Km (purified protein [1]) read?
Answer: Its Km is 46 ± 11 µM.

Question: And the kcat (purified protein [1])?
Answer: Its kcat is 1.9 ± 0.2 s⁻¹.

Question: And the kcat/Km (purified protein [1])?
Answer: The kcat/Km was 42000 ± 6000 M⁻¹ s⁻¹.

B2: Pseudomonas putida ProA (Pseudomonas putida KT2440) (protein)
chain: MTESVLDYMTRLGRAAREASRVIGRASTAQKNRALQAAADALDAARAELTAANELDLAAGRASGLEPALLDRLALTPARIDGMITGLRQVASLPDPVGAIRDMSYRPSGIQVGKMRTPLGVIGIIYESRPNVTIDAASLCLKSGNATILRGGSEAIHSNRAIATCIQRGLAEAGLPAAVVQVVETTDREAVGALISMPEFVDVIVPRGGRGLIERISRDARVPVIKHLDGICHIYVSQHADLDKAWNVAFNAKTYRYGICGAMETLLVDQQVAERFLPEMARRFVEKGVELRGCERTQAIISAKPATEADWHTEYLDAILSIRVVDGLNQAIEHINHYGSHHTDSIISEHQGEARQFMAEVDSASVMLNTPTCFADGFEYGLGAEIGISTDKLHARGPVGLEGLTCEKYVVIGDGQLRGQGSC
notes: as for B1
Question: B2 was tested. Which Km (purified protein [2]) did it give?
Answer: The Km was 140 ± 90 µM.

Question: What about the kcat (purified protein [2]) of the same protein?
Answer: Its kcat is 0.74 ± 0.23 s⁻¹.

Question: What about the kcat/Km (purified protein [2]) of the same protein?
Answer: The kcat/Km was 6100 ± 1700 M⁻¹ s⁻¹.

Question: What about the Km (purified protein [3]) of the same protein?
Answer: Its Km is 5200 ± 1900 µM.

Question: And the kcat (purified protein [3])?
Answer: Its kcat is 0.001 ± 0.0003 s⁻¹.

Question: What about the kcat/Km (purified protein [3]) of the same protein?
Answer: The kcat/Km was 0.15 ± 0.055 M⁻¹ s⁻¹.

B3: Bacillus subtilis ProA (Bacillus subtilis subsp. subtilis str. 168; E381A) (protein)
chain: MSEVSVKAKLAKEAAAEMIMKTTAEKDEALSLIANGLRKELDFLLAENAKDIVNGKENGLTPDIIDRLSLDEKRIRDIADAVELLIDLADPIGDSLETIEKENGLFIEKIRVPLGVVGMIYEARPNVTVDAATLCLKTGNAVVLRGSSSAIHSNKALVSVIYRALEQSALPIHAVQLIEDTSRETAKELFTLNDGLDVLIPRGGKKLIDLVVRESTVPVLETGAGNCHIFIDETAKPQMAEKVVVNAKTQRPSVCNAIESLLIHKAWARQHGKELLDQLENAGVEIRGDELVCELHPSSKQASKEDWETEFLAPVLSVKTVENVQEAVKHIQQYGTNHSEAILTENDKNAVYFQTAVDAAAVYHNASTRFTDGFEFGYGAAIGISTQKLHARGPMGLPALTSTKYIIKGTGQIRE
notes: as for B1
Question: What does the source list for B3?
Answer: Km (purified protein [4]): 46 ± 19 µM; kcat (purified protein [4]): 0.0028 ± 0.0004 s⁻¹; kcat/Km (purified protein [4]): 61 ± 14 M⁻¹ s⁻¹

B4: Methanosarcina acetivorans ProA (Methanosarcina acetivorans C2A; E390A) (protein)
chain: MAEDIETKVVKAKKASIELSSVSEEVKNRALEAMAESLDRERKAILEANSKDLEYASELKKVGKLTQALVDRLKVTDSKIDGMIAGIMDVIKLKDPVGETLSTLELDNDLILYQISCPIGLIGVIFESRPDVVPQVMSLCLKSGNATIFKGGSEARESNRTIFEILVKAIESTEGMPKGAFQLMETREEIMSLLSLDAYVDLLIPRGSNEFVKFIQDNTKIPVLGHTSGICHIYVDEFADPDTAWKVCFDAKVQYPAVCNAIETLLVNRKIAEAFLPKMAEMYIKAGVELRCDKDSYILLAEKGLSPLSKATEEDWSLEYNDLILSIKLVDTIKEAIAHINTFGSHHTDGIITENASRRKEFIGLVDSSSVMVNASTRFADGYRYGKGAAVGISTNKIHSRGPVGMEGLLIYKYILMGKGQVVADYAGENAKPYTHRKLDLKFADVN
notes: as for B1
Question: With B4 as the protein, how does the Km (purified protein [5]) read?
Answer: Its Km is 56 ± 28 µM.

Question: And the kcat (purified protein [5])?
Answer: Its kcat is 0.0018 ± 0.0005 s⁻¹.

Question: And the kcat/Km (purified protein [5])?
Answer: Its kcat/Km is 32 ± 15 M⁻¹ s⁻¹.

B5: Allivibrio fischeri ProA (Aliivibrio fischeri ES114; E384A) (protein)
chain: MNLTTMGQAAKAAAFDLAVAPTAQKNKALAIIADELEANKDAILAANEKDIKAAVEAGISEAMQDRLLLTEERLVGIANDVRNVINLNDPVGSEIDSKVLENGMSLSRRRVPIGVIGVIYEARPNVTIDIASLCLKTGNASILRGGKETFFSNMELVKVIQVALEKAGLPAASVQYIEKPDRELVSQLLTMDDYVDMIIPRGGAGLHKMCKENSSIPVIIGGFGISHAFVDESADLERALVVVDNSKAQRPSACNALDTLLVHEAVAPQFLALLANNMAGRVELVAEPKAYGLLKEFEGVSLREAQEGDFDTEWLSYTLGVKVVADVNEAAAHMQKHNASHSDTILTNNIESAEKFINTAGSAAVYVNASTRFTDGAQFGLGAAVAVSTQKLHARGPMGLEELTSYKWVGKADYLIRS
notes: as for B1
Question: Which Km (purified protein [6]) does the source give for B5 here?
Answer: The Km was 65 ± 23 µM.
